Measurements as given in US20240400677A1 (ELECTRA THERAPEUTICS, published 2024).
Blank lines part the entries; values can stand above or below the binder they belong to.

Assays:
[1] = molecular target: T1, cynomolgus monkey SIRPα on CHO cells (cynomolgus monkey, UniProt A0A2K5VYQ9 31-507); assay: flow cytometry, CHO transfectants, anti-human IgG
T1 construct: whole, on cells; also called Cyno SIRPα CHO
T1 sequence: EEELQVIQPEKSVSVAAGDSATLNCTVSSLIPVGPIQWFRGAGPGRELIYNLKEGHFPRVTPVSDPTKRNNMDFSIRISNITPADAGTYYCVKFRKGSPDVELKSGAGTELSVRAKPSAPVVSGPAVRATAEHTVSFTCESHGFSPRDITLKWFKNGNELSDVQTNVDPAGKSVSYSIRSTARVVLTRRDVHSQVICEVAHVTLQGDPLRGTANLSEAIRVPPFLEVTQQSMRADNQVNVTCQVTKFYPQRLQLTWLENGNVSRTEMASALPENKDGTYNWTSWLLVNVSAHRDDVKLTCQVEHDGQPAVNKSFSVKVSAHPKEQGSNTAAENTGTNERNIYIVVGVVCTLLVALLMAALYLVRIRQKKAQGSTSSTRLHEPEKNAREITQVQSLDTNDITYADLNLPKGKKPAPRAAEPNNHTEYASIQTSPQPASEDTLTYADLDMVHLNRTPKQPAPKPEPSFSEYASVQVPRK
Summary of the method: (§1)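 The CHO lines were stably transfected, with SIRPβ1 co-transfected with DAP12 where present. Titrated antibody was detected by labelled anti-human IgG and scored as MFI. The myc-scFv PPE was screened on these lines and on CHO-K1 parental cells, and fold change <2.0 was classed as non-binder.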

[2] = molecular target: T2, human SIRPβ1 on CHO cells (co-transfected with DAP12) (human, UniProt O00241 30-398); assay: flow cytometry, CHO transfectants, anti-human IgG
T2 construct: whole, on cells; co-transfected with DAP12; also called Human SIRPβ1 CHO
Summary of the method: as §1

[3] = molecular target: T3, human SIRPγ on stably transfected CHO cells (human, UniProt Q9P1W8 29-387); assay: flow cytometry, CHO transfectants, anti-human IgG
T3 construct: also called Human SIRPγ CHO
Summary of the method: as §1

[4] = molecular target: T4, Cynomolgus Monkey SIRPγ (plate-coated extracellular domain); assay: ELISA, coated SIRP ECD (2 µg/mL), anti-human IgG, luminescence
T4 construct: also called Cyno SIRPγ
T4 extracellular domain: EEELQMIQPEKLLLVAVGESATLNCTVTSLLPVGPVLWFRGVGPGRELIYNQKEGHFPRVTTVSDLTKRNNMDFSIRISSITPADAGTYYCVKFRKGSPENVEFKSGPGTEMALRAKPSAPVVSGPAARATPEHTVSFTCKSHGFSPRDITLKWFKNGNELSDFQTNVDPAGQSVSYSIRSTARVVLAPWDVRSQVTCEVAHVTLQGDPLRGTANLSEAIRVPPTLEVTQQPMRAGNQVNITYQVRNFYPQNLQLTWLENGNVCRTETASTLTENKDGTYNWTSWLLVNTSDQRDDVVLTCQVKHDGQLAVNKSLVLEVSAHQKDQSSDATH
Experimental: (§2) Selected hybridoma supernatants of Example 1 were tested for binding to human SIRPγ, cynomolgus monkey SIRPγ, human SIRPα V1, cynomolgus monkey SIRPα, human SIRPβ1, and cynomolgus monkey SIRPβ1 by enzyme-linked immunosorbent assay (ELISA). Briefly, 2 μg/mL of the extracellular domain of SIRP protein was coated onto high protein-binding plates and blocked. Undiluted supernatants were added to coated plates. The antibodies were detected by an anti-rat antibody and a chemiluminescent substrate. […] The data depict the relative luminescence units read by a plate-reader capable of detecting chemiluminescence.
(§3) FIGS. 2A-2G show binding curves of SIRPγ antibodies and human Fc isotype controls to human SIRPγ, cynomolgus monkey SIRPγ, human SIRPα V1, human SIRPα V2, and human SIRPβ1 by ELISA. […] Isotype control 2 was an unrelated human IgG1 antibody with irrelevant CDRs with no modifications in the Fc region. DNA was transiently transfected into Expi293F cells for 5 days. Antibodies were purified by Protein A from cell supernatants and analyzed in a titration via ELISA as previously described in FIG. 1 using an anti-human IgG antibody as the detection antibody.

[5] = molecular target: T5, extracellular binding domain of human SIRPγ (plate-coated) (human, UniProt Q9P1W8 29-360); assay: as above
T5 construct: also called hSIRPγ
Experimental: as §2, §3

[6] = molecular target: T6, human SIRPγ-His monomer protein (human, UniProt Q9P1W8 29-360); assay: BLI Octet, antibody on AHC, global 1:2 model
T6 construct: also called hSIRPγ
Experimental: (§4) Antibodies were coated onto anti-human Fc capture (AHC) biosensors. SIRP-His monomer protein or bivalent SIRP protein with mouse Fc at four concentrations (200 nM, 100 nM, 50 nM, 25 nM) were exposed to the biosensor to measure on-rate kinetics of SIRP antibodies binding to SIRP protein. The biosensors were then exposed to wash buffer to measure off-rate kinetics. The resulting kinetic data were analyzed and fitted using a global 1:2 binding model.

[7] = molecular target: T7, cynomolgus monkey SIRPγ-His monomer protein (cynomolgus monkey, UniProt Q9P1W8 29-359 (human entry), limits assumed); assay: BLI Octet, antibody on AHC, global 1:2 model
T7 construct: also called Cyno SIRPγ; Cyno SIRPγ-His
T7 chain: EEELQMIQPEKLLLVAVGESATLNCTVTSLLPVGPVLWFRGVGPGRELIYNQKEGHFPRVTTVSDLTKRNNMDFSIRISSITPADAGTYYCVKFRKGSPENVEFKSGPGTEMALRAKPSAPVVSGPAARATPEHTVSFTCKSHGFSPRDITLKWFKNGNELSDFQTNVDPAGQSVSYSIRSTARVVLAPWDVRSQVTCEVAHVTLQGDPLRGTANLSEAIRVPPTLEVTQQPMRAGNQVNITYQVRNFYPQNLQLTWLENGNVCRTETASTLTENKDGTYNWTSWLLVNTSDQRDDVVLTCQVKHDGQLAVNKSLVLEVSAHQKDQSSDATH
Experimental: as §4

[8] = molecular target: T8, bivalent human SIRPγ protein with mouse Fc (human, UniProt Q9P1W8 29-360); assay: BLI Octet, antibody on AHC, global 1:2 model
T8 construct: also called Human SIRPγ-mFc
Experimental: as §4

[9] = molecular target: T1, cynomolgus monkey SIRPα on CHO cells; assay: flow cytometry
[10] = molecular target: T2, human SIRPβ1 on CHO cells …; assay: flow cytometry
[11] = molecular target: T9, cynomolgus monkey SIRPγ on CHO cells (cynomolgus monkey, UniProt Q9P1W8 29-386 (human entry)); assay: flow cytometry, myc-scFv PPE
T9 construct: also called Cyno SIRPγ CHO
T9 chain: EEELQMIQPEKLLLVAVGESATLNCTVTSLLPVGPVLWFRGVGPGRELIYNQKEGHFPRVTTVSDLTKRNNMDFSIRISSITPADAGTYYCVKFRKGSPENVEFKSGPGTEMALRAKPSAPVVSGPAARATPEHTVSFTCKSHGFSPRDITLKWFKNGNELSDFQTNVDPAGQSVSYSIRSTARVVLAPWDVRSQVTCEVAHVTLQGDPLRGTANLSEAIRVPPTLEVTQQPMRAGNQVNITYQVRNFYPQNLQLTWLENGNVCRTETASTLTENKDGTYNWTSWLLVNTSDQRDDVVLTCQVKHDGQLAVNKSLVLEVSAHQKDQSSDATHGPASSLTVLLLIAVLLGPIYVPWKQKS
Summary of the method: as §1

[12] = molecular target: T3, human SIRPγ on stably transfected CHO …; assay: flow cytometry, myc-scFv PPE
Summary of the method: as §1

[13] = molecular target: T7, cynomolgus monkey SIRPγ-His monomer …; assay: BLI Octet, captured scFv PPE, cyno SIRP
Summary of the method: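 Bio-layer interferometry used biotinylated anti-V5 on streptavidin sensors to capture V5-tagged scFv from crude periplasmic extract. Monomeric His-tagged SIRP protein at 500 nM was associated, then dissociated in wash buffer. Off-rate (kdis) was analyzed from the kinetic traces.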

[14] = molecular target: T6, human SIRPγ-His monomer protein; assay: BLI Octet, V5-scFv PPE captured, SIRP-His 500 nM

T2 sequence (O00241 30-398): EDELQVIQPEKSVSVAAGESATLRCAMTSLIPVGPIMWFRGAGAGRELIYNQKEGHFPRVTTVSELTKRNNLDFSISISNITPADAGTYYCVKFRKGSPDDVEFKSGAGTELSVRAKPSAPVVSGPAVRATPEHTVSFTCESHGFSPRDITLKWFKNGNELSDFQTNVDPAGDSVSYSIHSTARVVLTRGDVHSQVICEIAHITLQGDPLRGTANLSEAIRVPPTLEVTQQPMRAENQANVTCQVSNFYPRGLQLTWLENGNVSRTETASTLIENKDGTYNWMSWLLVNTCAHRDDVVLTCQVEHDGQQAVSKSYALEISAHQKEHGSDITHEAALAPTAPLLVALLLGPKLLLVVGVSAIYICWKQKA
T3 sequence (Q9P1W8 29-387 limits assumed): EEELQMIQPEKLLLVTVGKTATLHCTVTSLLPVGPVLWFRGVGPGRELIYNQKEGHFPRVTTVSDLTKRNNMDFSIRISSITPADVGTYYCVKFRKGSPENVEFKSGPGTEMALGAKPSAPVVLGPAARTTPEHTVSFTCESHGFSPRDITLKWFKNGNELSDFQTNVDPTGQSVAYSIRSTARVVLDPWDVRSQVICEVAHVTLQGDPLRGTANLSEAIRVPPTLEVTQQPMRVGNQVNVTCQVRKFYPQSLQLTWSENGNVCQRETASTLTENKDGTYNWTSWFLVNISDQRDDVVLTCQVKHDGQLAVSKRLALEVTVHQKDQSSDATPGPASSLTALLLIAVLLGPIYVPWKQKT
T6 sequence (Q9P1W8 29-360 limits assumed): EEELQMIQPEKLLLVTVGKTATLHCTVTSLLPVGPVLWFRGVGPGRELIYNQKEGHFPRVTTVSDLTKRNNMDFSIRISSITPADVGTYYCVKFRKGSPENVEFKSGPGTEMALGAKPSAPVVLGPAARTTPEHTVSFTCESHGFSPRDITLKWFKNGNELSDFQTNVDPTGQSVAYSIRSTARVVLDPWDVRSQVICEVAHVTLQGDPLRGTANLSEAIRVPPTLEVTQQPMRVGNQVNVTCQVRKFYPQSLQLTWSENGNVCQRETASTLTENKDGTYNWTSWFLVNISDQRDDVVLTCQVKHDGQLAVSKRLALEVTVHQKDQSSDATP
T5 sequence (Q9P1W8 29-360 limits assumed): as above
T8 sequence (Q9P1W8 29-360 limits assumed): as above

B1: Antibody 73 (antibody, V domains shown)
VH: QVQLVQSGAEVKKPGASVKVSCKASGGTFSSYDINWVRQAPGQGLEWMGWMNPNSGNTGYAQKFQGRVTMTRDTSTSTVYMELSSLRSEDTAVYYCARDLTLYCSSTSCLDAFDYWGQGTLVTVSS
VL: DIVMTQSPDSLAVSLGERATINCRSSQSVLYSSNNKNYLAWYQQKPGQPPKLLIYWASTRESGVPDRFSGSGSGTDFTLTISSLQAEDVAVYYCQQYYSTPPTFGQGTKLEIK
binding result [1]: no binding (tested: about 20 µg/mL)
binding result [2]: no binding (tested: about 20 µg/mL)
EC50 (read off the curve) [3]: ~0.5 µg/mL
EC50 (read off the curve) [4]: ~0.05 µg/mL
EC50 (read off the curve) [5]: ~0.03 µg/mL

B2: Antibody 92 (antibody, V domains shown)
VH: QVQLVQSGAEVKKPGASVKVSCKASGGTFSSYDINWVRQAPGQGLEWMGWMNPNSGNTGYAQKFQGRVTMTRDTSTSTVYMELSSLRSEDTAVYYCARDLTLYCSSTSCLDAFDYWGQGTLVTVSS
VL: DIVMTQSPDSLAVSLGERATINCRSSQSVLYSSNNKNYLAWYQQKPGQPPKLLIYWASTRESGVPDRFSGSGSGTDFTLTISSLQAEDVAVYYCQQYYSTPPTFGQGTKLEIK
Kd [6]: 12.3 nM
Kd [7]: 2960 nM
Kd [8]: 9.03 nM
binding result [1]: no binding (tested: about 30 µg/mL)
binding result [2]: no binding (tested: about 30 µg/mL)

B3: Antibody 85 (antibody, V domains shown)
VH: QVQLVQSGAEVKKPGASVKVSCKASGYTFTSYDINWVRQAPGQGLEWMGWMNPNSGNTGYAQKFQGRVTMTRDTSTSTVYMELSSLRSEDTAVYYCARESYAYCSSTSCYDAFDIWGQGTMVTVSS
VL: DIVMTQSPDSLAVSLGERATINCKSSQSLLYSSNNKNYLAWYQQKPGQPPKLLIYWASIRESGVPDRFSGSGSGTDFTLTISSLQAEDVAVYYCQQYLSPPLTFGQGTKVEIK
Kd [6]: 96.9 nM
Kd [7]: 96.1 nM
Kd [8]: 35.6 nM
binding result [1]: no binding (tested: about 30 µg/mL)
binding result [2]: no binding (tested: about 30 µg/mL)

B5: Antibody 86 (antibody, V domains shown)
VH: EVQLLESGGGLVQPGGSLRLSCAASGFTLGSYWMHWVRQAPGKGLEWVSLISWDGGSTYYADSVKGRFTISRDNSKNTLYLQMNSLRAEDTAVYYCAKGPWVGYSGYDLNYYYYGMDVWGQGTTVTVSS
VL: DIQMTQSPSSLSASVGDRVTITCRASQDIRRALAWYQQKPGKAPKLLIYAASSLQSGVPSRFSGSGSGTDFTLTISSLQPEDFATYYCLQHNSYPPTFGQGTKLEIK
Kd [6]: 56.1 nM
Kd [7]: 48.2 nM
Kd [8]: 3.92 nM

B7: Antibody 89 (antibody, V domains shown)
VH: QVQLVQSGAEVKKPGASVKVSCKASGGTFSSYAISWVRQAPGQGLEWMGIINPSSSSTGYAQKFQGRVTMTRDTSTSTVYMELSSLRSEDTAVYYCARAGYYDSSGYYYSPYYGMDVWGQGTTVTVSS
VL: EIVMTQSPATLSVSPGERATLSCRASQSISGSYLAWYQQKPGQAPRLLIYGASTRATGIPARFSGSGSGTEFTLTISSLQSEDFAVYYCQQYGSFPFTFGPGTKVDIK
Kd [6]: 297 nM
Kd [7]: 26.2 nM
Kd [8]: 1320 nM
binding result [1]: no binding (tested: about 30 µg/mL)
binding result [2]: no binding (tested: about 30 µg/mL)
EC50 (read off the curve) [4]: ~0.2 µg/mL
EC50 (read off the curve) [5]: ~0.3 µg/mL

The next lines start with the values.

binding result [1]: no binding (tested: about 20 µg/mL)
binding result [2]: no binding (tested: about 20 µg/mL)
EC50 (read off the curve) [3]: ~0.5 µg/mL
B4: Antibody 65 (antibody, V domains shown)
VH: QVQLVQSGAEVKKPGASVKVSCKASGYTFTSHDINWVRQAPGQGLEWMGWMNANNGNAGYAQKFQGRVTMTRDTSTSTVYMELSSLRSEDTAVYYCAKDLSPSSSWSTYYYYYGMDVWGQGTMVTVSS
VL: DIQMTQSPSSLSASVGDRVTITCRASQSISNLLAWYQQKPGKAPKLLIYAASSLQSGVPSRFSGSGSGTDFTLTISSLQPEDFATYYCQQSYSTPYTFGQGTKLEIK

binding result [1]: no binding (tested: about 20 µg/mL)
EC50 (read off the curve) [3]: ~0.1 µg/mL
EC50 (read off the curve) [4]: ~0.02 µg/mL
EC50 (read off the curve) [5]: ~0.02 µg/mL
B6: Antibody 71 (antibody, V domains shown)
VH: QVQLVQSGAEVKKPGASVKVSCKASGYTFTSYYIHWVRQAPGQGLEWMGTINPSGGSTSYAQKFQGRVTMTRDTSTSTVYMELSSLRSEDTAVYYCARETSRWLRDYYYGMDVWGQGTTVTVSS
VL: DIVMTQSPLSLPVTPGEPASISCRSSQSLLHSNGYNYLDWYLQKPGQSPQLLIYDASSLESGVPDRFSGSGSGTDFTLKISRVEAEDVGVYYCMQGTHWPLTFGGGTKVEIK

binding result [9]: no binding (tested: fold change <2.0)
binding result [10]: no binding (tested: fold change <2.0)
MFI fold change over parental CHO [11]: 21.3 fold
MFI fold change over parental CHO [12]: 18.1 fold
binding result [13]: binds
kdis [14]: 0.001 to 0.01 s⁻¹
B8: Antibody 31 (scFv, V domains shown)
VH: QVQLVQSGAEVKKPGASVKVSCKASGGTFRSYAISWVRQAPGQGLEWMGWMNPNSGNTGYAQKFQGRVTMTRDTSTSTVYMELSSLRSEDTAVYYCARESVLKGGMDVWGQGTTVTVSS
VL: DIVMTQSPDSLAVSLGERATINCRSSQSLFHSSTNANNLAWYQQKPGQPPKLLIYWASTRESGVPDRFSGSGSGTDFTLTISSLQAEDVAVYYCQQYYITPLTFGQGTRLEIK
notes: scFv in crude PPE, V5/myc-tagged
